EC50 data for 4 molecules are collected here from patent US20220041723A1 (published 2022).

Positions count from the first letter of the chain named. Read-outs that look alike come from different tables or passages of the source.

Test [1] addresses T1, human CTLA-4 expressed on cells (293T cells stably transfected with human CTLA-4); in vitro-activated human … (human, UniProt P16410 36-223). The experiment in a line: FACS.
Test [2] has as its target T1, human CTLA-4 expressed on cells (293T …). The experiment in a line: FACS. This is another data set of the same source.

B1: 2-F09 (antibody, V domains shown)
VH: EVQLLESGGGLVQPGGSLRLSCAASGFTFKAYSMSWIRQAPGKGLEWVSGISNTGGSTDFADSVKGRFTISRDNSKNTLYLQMNSLRAEDTAMYYCARLGYSGYDDRGMDVWGQGTLVTVSS
VL: QSVLTQPPSASGTPGQRVTISCSGSSSNIGSNYVYWYQQLPGTAPKLLIYGNSNRPSGVPDRFSGSKSGTSASLAISGLRSEDEADYYCQSYDSSLSGPVVFGGGTKLTVLG
In test [1], B1 displayed an EC50 of 0.19 nM.

B2: 5-B07 (antibody, V domains shown)
VH: EVQLLESGGGLVQPGGSLRLSCAASGFTFSSYSMNWVRQAPGKGLEWVSAISGSGGSTYYADSVKGRFTISRDNSKNTLYLQMNSLRAEDTAVYYCARDRVEMNQWLADWGQGTLVTVSS
VL: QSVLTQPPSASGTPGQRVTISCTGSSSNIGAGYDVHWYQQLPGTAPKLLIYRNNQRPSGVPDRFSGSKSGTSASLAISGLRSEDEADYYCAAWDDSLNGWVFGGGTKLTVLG
In test [2], B2 returned an EC50 of 0.15 nM.

B3: 4-E03 (antibody, V domains shown)
VH: EVQLLESGGGLVQPGGSLRLSCAASGFTFSDYYMSWVRQAPGKGLEWVSGISWSSRDKGYADSVKGRFTISRDNSKNTLYLQMNSLRAEDTAVYYCTTDLARYWGQGTLVTVSS
VL: QSVLTQPPSASGTPGQRVTISCTGSSSNIGAGYDVHWYQQLPGTAPKLLIYGNDNRPSGVPDRFSGSKSGTSASLAISGLRSEDEADYYCAVWDDSLNGVVFGGGTKLTVLG
Regarding B3, the EC50 in test [2] is 0.13 nM.

B4: 2-C06 (antibody, V domains shown)
VH: EVQLLESGGGLVQPGGSLRLSCAASGFTFSSYAMSWVRQAPGKGLEWVSGISGSGGYIHYADSVKGRFTISRDNSKNTLYLQMNSLRAEDTAVYYCATYSSGLHDAFDIWGQGTLVTVSS
VL: B3 VL with G52D, D54N, N55K, V92A, V100W
In test [2], B4 displayed a half-maximal effective concentration (EC50) of 0.1 nM. The EC50 values of the last two molecules are within 1.5-fold of each other.
